Test [1] addresses T1, Human TIM-3 (human, UniProt Q8TDQ0 22-200, limits assumed).
T1 construct: The construct used for BIACORE is not described; also called T Cell Immunoglobulin and Mucin Protein 3; HAVCR2
T1 sequence (looked up): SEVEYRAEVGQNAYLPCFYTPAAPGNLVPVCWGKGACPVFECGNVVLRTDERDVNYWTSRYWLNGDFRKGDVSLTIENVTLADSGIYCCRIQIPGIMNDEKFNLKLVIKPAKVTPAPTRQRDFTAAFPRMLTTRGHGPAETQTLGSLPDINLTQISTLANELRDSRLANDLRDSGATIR
The test can be described thus: BIACORE (SPR). (In general: In SPR one partner is held on a chip, and binding of the other changes the refractive index at the surface.)

Test [2] addresses T2, Cyno TIM-3 (cynomolgus monkey, UniProt A0A2K5U3G7 22-294).
T2 construct: The construct used for BIACORE is not described; also called cynomolgus monkey TIM-3
T2 sequence: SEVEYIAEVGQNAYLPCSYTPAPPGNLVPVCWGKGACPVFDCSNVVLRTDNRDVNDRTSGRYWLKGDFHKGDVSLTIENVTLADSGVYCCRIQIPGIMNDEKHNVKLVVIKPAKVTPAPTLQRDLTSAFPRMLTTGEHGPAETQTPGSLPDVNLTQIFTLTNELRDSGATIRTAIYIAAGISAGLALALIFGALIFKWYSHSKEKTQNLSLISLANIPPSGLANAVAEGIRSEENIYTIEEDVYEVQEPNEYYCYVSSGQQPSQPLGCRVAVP
The test can be described thus: BIACORE (SPR).

The term Kd denotes the concentration at which binding is half-saturated. Lower therefore signals a tighter complex.

Where only a bound is given, the exact number is not on record here.

B1: APE5137 (antibody, V domains shown)
VH: EVQLLESGGGLVQPGGSLRLSCAAASGFTFSSYDMSWVRQAPGKGLDWVSTISGGGTYTYYQDSVKGRFTISRDNSKNTLYLQMNSLRAEDTAVYYCASMDYWGQGTTVTVSS
VL: DIQMTQSPSSLSASVGDRVTITCRASQSIRRYLNWYHQKPGKAPKLLIYGASTLQSGVPSRFSGSGSGTDFTLTISSLQPEDFAVYYCQQSHSAPLTFGGGTKVEIKR
notes: also called Lead Antibody; lead anti-TIM-3 antibody
As to B1, the Kd in test [1] is 0.05 nM; in test [2], 0.19 nM.

B2: APE5121 (antibody, V domains shown)
VH: EVQVLESGGGLVQPGGSLRLYCVASGFTFSGSYAMSWVRQAPGKGLEWVSAISGSGGSTYYADSVKGRFTISRDNSKNTLYLQMNSLRAEDTAVYYCAKKYYVGPADYWGQGTLVTVSS
VL: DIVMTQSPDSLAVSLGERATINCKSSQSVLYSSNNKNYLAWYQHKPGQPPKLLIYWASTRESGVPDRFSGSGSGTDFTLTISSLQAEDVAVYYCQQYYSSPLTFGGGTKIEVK
notes: also called Back-Up Antibody
With B2, the Kd in test [1] was less than 0.05 nM; in test [2], 1.5 nM.

The values above are taken from US20180127500A1 (ANAPTYSBIO, published 2018).
